The record followed here is patent publication US9744220B2, “Compositions and methods for treating inflammatory diseases” (priority 2013, dated 2017).

This assay deals with cardiac fibroblasts. Briefly: sPDNF stimulation of primary cardiac fibroblasts, chemokine transcripts by qPCR. The assay is classed as cell-based, mouse. Particulars: 3 hr, dose-dependent. Here is the method:
FIG. 7A is a graph depicting MCP-1 and FKN expression in cardiomyocytes of mice infected with T cruzi. FIG. 7B is a graph depicting MCP-1 and FKN expression in cardiac fibroblasts of mice infected with T cruzi. T cruzi infection: Primary cultures of mouse cardiomyocytes (FIG. 7A) and cardiac fibroblasts (FIG. 7B) were plated in 6-well plates, infected with T cruzi Tulahuen strain (MOI=10) for 3, 24, and 72 hr, and MCP-1 and FKN transcripts were quantified by qPCR. Chemokine gene expression was normalized to HPRT and fold change calculated relative to uninfected cells. Points represent mean±SD fold change expression of triplicate samples. The experiment was repeated, and similar results were obtained. FIG. 7C is a graph depicting MCP-1 and FKN expression in cardiomyocytes of mice injected with sPDNF. FIG. 7D is a graph depicting MCP-1 and FKN expression in cardiac fibroblasts of mice injected with sPDNF. sPDNF stimulation: Primary cardiomyocytes (FIG. 7C) and cardiac fibroblasts (FIG. 7D) were plated in 6-well plates, serum starved overnight, then stimulated with the indicated concentration of sPDNF (3 hr), and MCP-1 and FKN transcripts were quantified by qPCR. Chemokine gene expression was normalized to HPRT and fold change calculated relative to vehicle-treated cells; *P<0.05, **P<0.01, and ***P<0.005. […]
(In qPCR the cycle at which signal appears reflects the starting amount.)

B1: sPDNF: N-terminal short-form of T cruzi PDNF that contains Trk-binding sites, recombinant; amino acids 1-588 of SEQ ID NO: 2; JR-100 is the commercial name (protein, listed as Trypanosoma cruzi)
chain: MGKTVVVASRMFWLMFFVPLLLAICPSEPAYALAPGSSRVELFKRKNSTVPFEDKAGKVTERVVHSFRLPALVNVDGVMVAIADARYDTSNDNSLIDTVAKYSVDDGETWETQIAIKNSRVSSVSRVVDPTVIVKGNKLYVLVGSYYSSRSYWSSHGDARDWDILLAVGEVTKSTAGGKITASIKWGSPVSLKKFFPAEMEGMHTNQFLGGAGVAIVASNGNLVYPVQVTNKKKQVFSKIFYSEDDGKTWKFGKGRSDFGCSEPVALEWEGKLIINTRVDWKRRLVYESSDMEKPWVEAVGTVSRVWGPSPKSNQPGSQSSFTAVTIEGMRVMLFTHPLNFKGRWLRDRLNLWLTDNQRIYNVGQVSIGDENSAYSSVLYKDDKLYCLHEINTDEVYSLVFARLVGELRIIKSVLRSWKNWDSHLSSICTPADPAASSSESGCGPAVTTVGLVGFLSGNASQNVWEDAYRCVNASTANAERVRNGLKFAGVGGGALWPVSQQGQNQRYRFANHAFTLVASVTIHEAPRAASPLLGASLDSSGGKKLLGLSYDEKHQWQPIYGSTPVTPTGSWETGKRYHLVLTMANKI
With B1, the FKN transcripts entry was “increase” and the MCP-1 transcripts entry is “increase”.
